Substrate in this data set: Nc1ncnc2c1ncn2[C@@H]1O[C@H](COP(=O)(O)OP(=O)(O)OP(=O)(O)O)[C@@H](O)[C@H]1O
Description: single-molecule magnetic trapping, stalled RNAP dissociation lifetime versus [ATP]. Format: biochemical, Escherichia coli. The following applies: saturating RapA, RNAP stalled at +20 on positively supercoiled DNA, 0.3 pN, 200 μM GTP and UTP, 8 mM MgCl2, pH 8.0, 34°C, kcat is RNAP dissociation rate at saturating RapA and ATP, not ATP hydrolysis.

B1: RapA-RNAP complex (Escherichia coli K-12) (protein)
chain: PFTLGQRWISDTESELGLGTVVAVDARTVTLLFPSTGENRLYARSDSPVTRVMFNPGDTITSHDGWQMQVEEVKEENGLLTYIGTRLDTEESGVALREVFLDSKLVFSKPQDRLFAGQIDRMDRFALRYRARKYSSEQFRMPYSGLRGQRTSLIPHQLNIAHDVGRRHAPRVLLADEVGLGKTIEAGMILHQQLLSGAAERVLIIVPETLQHQWLVEMLRRFNLRFALFDDERYAEAQHDAYNPFDTEQLVICSLDFARRSKQRLEHLCEAEWDLLVVDEAHHLVWSEDAPSREYQAIEQLAEHVPGVLLLTATPEQLGMESHFARLRLLDPNRFHDFAQFVEEQKNYRPVADAVAMLLAGNKLSNDELNMLGEMIGEQDIEPLLQAANSDSEDAQSARQELVSMLMDRHGTSRVLFRNTRNGVKGFPKRELHTIKLPLPTQYQTAIKVSGIMGARKSAEDRARDMLYPERIYQEFEGDNATWWNFDPRVEWLMGYLTSHRSQKVLVICAKAATALQLEQVLREREGIRAAVFHEGMSIIERDRAAAWFAEEDTGAQVLLCSEIGSEGRNFQFASHMVMFDLPFNPDLLEQRIGRLDRIGQAHDIQIHVPYLEKTAQSVLVRWYHEGLDAFEHTCPTGRTIYDSVYNDLINYLASPDQTEGFDDLIKNCREQHEALKAQLEQGRDRLLEIHSNGGEKAQALAESIEEQDDDTNLIAFAMNLFDIIGINQDDRGDNMIVLTPSDHMLVPDFPGLSEDGITITFDREVALAREDAQFITWEHPLIRNGLDLILSGDTGSSTISLLKNKALPVGTLLVELIYVVEAQAPKQLQLNRFLPPTPVRMLLDKNGNNLAAQVEFETFNRQLNAVNRHTGSKLVNAVQQDVHAILQLGEAQIEKSARALIDAARNEADEKLSAELSRLEALRAVNPNIRDDELTAIESNRQQVMESLDQAGWRLDALRLIVVTHQ
notes: full-length RapA, N-terminal His6 tag (pQE80L, expressed in BL21(DE3)), 110 kDa; RNAP core saturated with sigma70 (rpoD) for initiation, then stalled as elongation complex on DNA; with DNA-directed RNA polymerase subunit alpha; DNA-directed RNA polymerase subunit beta; DNA-directed RNA polymerase subunit beta'; DNA-directed RNA polymerase subunit omega
Consider B1, for which the Km stood at 160 ± 35 µM and the kcat was 1.1 × 10^–3 ± 0.5 × 10^–5 s^–1.

The Km is the substrate concentration at which the rate is half of its maximum.

The values are drawn from publication PMC9303389, “On the stability of stalled RNA polymerase and its removal by RapA” (Nucleic Acids Research, 2022).
